Assay [1] concerns the target T1, human TIGIT (soluble, SPR; construct not stated) (human, UniProt Q495A1 22-141, limits assumed).
T1 construct: whole entry named; also called huTIGIT
T1 sequence: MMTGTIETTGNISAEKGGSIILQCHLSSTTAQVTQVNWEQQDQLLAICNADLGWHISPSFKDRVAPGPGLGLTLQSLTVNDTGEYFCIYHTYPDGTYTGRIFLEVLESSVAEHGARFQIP
As to the kind of experiment: SPR. (Surface plasmon resonance follows binding to a sensor surface in real time, without labels.)

The target in assay [2] is T1, human TIGIT (soluble, SPR; construct …). As to the kind of experiment: SPR, full titration curves, subcloned and purified antibody.
The target in assay [3] is T2, recombinant human TIGIT (rhTIGIT/Fc) (human, UniProt Q495A1 22-141).
T2 construct: also called TIGIT antigen (rhTIGIT/Fc); not shown: Fc part
T2 sequence: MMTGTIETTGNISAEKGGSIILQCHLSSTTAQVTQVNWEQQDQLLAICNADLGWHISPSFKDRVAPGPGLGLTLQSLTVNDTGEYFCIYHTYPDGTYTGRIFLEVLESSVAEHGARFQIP
As to the kind of experiment: SPR, mAb captured on anti-kappa chip, rhTIGIT/Fc analyte. How it is done: Binding of anti-huTIGIT antibodies to soluble human TIGIT was determined by BIACORE® surface plasmon resonance (SPR) analysis. […] The capture concentration of the mAb/volume was 2-40 μg/mL (5 μL at 10 μL/min). The antigen association time was 5 minutes at 15 μL/min, the antigen dissociation time was 6 minutes, and regeneration was performed with 50 mM HCl/50 mM NaOH (12 μL each at 100 μL/min).

The target in another assay is T3, human TIGIT on cells (human, UniProt Q495A1 22-244).
T3 sequence: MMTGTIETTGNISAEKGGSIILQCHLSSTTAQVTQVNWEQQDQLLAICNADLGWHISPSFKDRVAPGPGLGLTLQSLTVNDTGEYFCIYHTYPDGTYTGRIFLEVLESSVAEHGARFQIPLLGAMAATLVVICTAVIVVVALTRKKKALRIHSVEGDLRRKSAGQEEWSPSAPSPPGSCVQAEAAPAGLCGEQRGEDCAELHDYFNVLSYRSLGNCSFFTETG
Put plainly: cell-based or functional assay.

Another assay concerns the target T4, cynomolgus monkey TIGIT (cynomolgus monkey).
T4 construct: also called cyno TIGIT
As to the kind of experiment: SPR.

Assay [4] deals with T1, human TIGIT (soluble, SPR; construct …). As to the kind of experiment: SPR. This is another data set of the same source.

Ten molecules from patent publication US20190112375A1 (Bristol-Myers Squibb, published 2019) can be followed below.

The term Kd denotes the free concentration of one partner at which half of the binding sites on the other are occupied at equilibrium, for simple one-to-one binding. The term koff denotes the first-order rate constant of dissociation. For orientation: kon means a measure of how fast the partners come together.

B1: 22G2 H3Q IgG1.1f (antibody)
heavy: QVQLQESGPGLVKPSETLSLTCTVSGGSVSSGIYYWSWIRQPPGKGLEWIGYIYYSGSTNYNPSLKSRVTISVDTSKNQFSLKLSSVTAADTAVYYCARDYYVSGNYYNVDYYFFGVDVWGQGTTVTVSSASTKGPSVFPLAPSSKSTSGGTAALGCLVKDYFPEPVTVSWNSGALTSGVHTFPAVLQSSGLYSLSSVVTVPSSSLGTQTYICNVNHKPSNTKVDKRVEPKSCDKTHTCPPCPAPEAEGAPSVFLFPPKPKDTLMISRTPEVTCVVVDVSHEDPEVKFNWYVDGVEVHNAKTKPREEQYNSTYRVVSVLTVLHQDWLNGKEYKCKVSNKALPSSIEKTISKAKGQPREPQVYTLPPSREEMTKNQVSLTCLVKGFYPSDIAVEWESNGQPENNYKTTPPVLDSDGSFFLYSKLTVDKSRWQQGNVFSCSVMHEALHNHYTQKSLSLSPG
light: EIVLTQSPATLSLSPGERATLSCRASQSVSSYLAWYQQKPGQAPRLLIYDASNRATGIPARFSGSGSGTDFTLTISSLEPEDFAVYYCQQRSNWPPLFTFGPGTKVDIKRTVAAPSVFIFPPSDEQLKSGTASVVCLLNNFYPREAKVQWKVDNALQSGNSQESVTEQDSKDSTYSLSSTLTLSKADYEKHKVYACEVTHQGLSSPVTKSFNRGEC
notes: kappa constant tied to the 22G2 light chain only by claim 4; also called 22G2 VH domain H3Q, isotype IgG1.1f
In assay [1], B1 had a Kd of 0.08 nM, a koff of 0.00016 s⁻¹ and a kon of 2e+06 M⁻¹ s⁻¹.

B2: 22G2 (antibody, V domains shown)
VH: QVHLQESGPGLVKPSETLSLTCTVSGGSVSSGIYYWSWIRQPPGKGLEWIGYIYYSGSTNYNPSLKSRVTISVDTSKNQFSLKLSSVTAADTAVYYCARDYYVSGNYYNVDYYFFGVDVWGQGTTVTVSS
VL: EIVLTQSPATLSLSPGERATLSCRASQSVSSYLAWYQQKPGQAPRLLIYDASNRATGIPARFSGSGSGTDFTLTISSLEPEDFAVYYCQQRSNWPPLFTFGPGTKVDIK
notes: fully human mAb from KM mouse hybridoma, kappa light chain; also called anti-huTIGIT mAb 22G2; antibody 22G2
As for B2, the equilibrium dissociation constant (Kd) in assay [2] is 0.09 nM; in assay [3] it was 0.17 nM; with cynomolgus monkey TIGIT, 0.09 nM; in assay [4] it was 0.06 nM. Besides, in assay [3], the off-rate constant (koff) was determined as 0.000403 s⁻¹. Further, the kon in assay [3] turned out to be 2.37e+06 M⁻¹ s⁻¹. For the same molecule, the “Bioassay of Jurkat/hTIGIT cells, block of PVR signaling, IC50” value with human TIGIT on cells worked out at 0.21 nM.

B3: 22G2 H3Q IgG1 (antibody)
heavy: QVQLQESGPGLVKPSETLSLTCTVSGGSVSSGIYYWSWIRQPPGKGLEWIGYIYYSGSTNYNPSLKSRVTISVDTSKNQFSLKLSSVTAADTAVYYCARDYYVSGNYYNVDYYFFGVDVWGQGTTVTVSS
light: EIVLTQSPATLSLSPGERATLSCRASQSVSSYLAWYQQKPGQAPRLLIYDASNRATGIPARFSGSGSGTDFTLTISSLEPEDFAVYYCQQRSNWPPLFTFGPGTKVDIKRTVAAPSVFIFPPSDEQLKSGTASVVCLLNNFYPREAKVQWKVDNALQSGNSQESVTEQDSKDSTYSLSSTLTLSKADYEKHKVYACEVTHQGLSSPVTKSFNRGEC
notes: isotype printed as IgG1 (perhaps IgG1f); kappa constant tied to the 22G2 light chain only by claim 4; also called 22G2 VH domain H3Q, isotype IgG1; not shown: human IgG1 constant region
As for B3, in assay [1], the dissociation constant Kd came out at 0.16 nM, the off-rate constant (koff) stood at 0.0003 s⁻¹ and the on-rate (kon) was determined as 1.9e+06 M⁻¹ s⁻¹.

B4: 15A6 (antibody, V domains shown)
VH: QLQLQESGPGLVKPSETLSLTCTVSGGSISSSRYFWGWIRQPPGKGLEWIGYIYYRGSTYYNPSLKSRVTIAVDTSKNQFSLKLSSVTAADTAVYYCASSSAWYFDYWGQGNLVTVSS
VL: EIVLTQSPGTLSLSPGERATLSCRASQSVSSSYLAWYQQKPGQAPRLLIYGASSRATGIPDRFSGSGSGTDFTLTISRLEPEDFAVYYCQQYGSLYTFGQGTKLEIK
notes: fully human mAb from KM mouse hybridoma, kappa light chain; also called anti-huTIGIT mAb 15A6
B4 registered a Kd in assay [2] of 1.5 nM. In assay [3], the dissociation constant (Kd) was 19.9 nM, the dissociation rate constant (koff) was 0.00404 s⁻¹ and the kon stood at 202000 M⁻¹ s⁻¹.

B5: 10D7 (antibody, V domains shown)
VH: QGQLVQSGAEVKKPGSSVKVSCKASGGIFRNYAISWVRQAPGQGLEWMGGIIPFFGTANYAQKFQGRVTITADESTSTAYMELSSLRSEDTAVYYCARGGAAAGTTRYGYYYYGMDVWGQGTTVTVSS
VL: DIQMTQSPSSLSASVGDRVTITCRASQGISSWLAWYQQKPEKAPKSLIYAASSLQSGVPSRFSGSGSGTDFTLTISSLQPEDFATYYCQQYNSYPITFGQGTRLEIK
notes: fully human mAb from KM mouse hybridoma; also called anti-huTIGIT mAb 10D7
For B5, in assay [3], the dissociation constant (Kd) was determined as 38.1 nM, the koff stood at 0.00651 s⁻¹ and the kon was 171000 M⁻¹ s⁻¹.

B6: 15A6 IgG1.1f (antibody)
heavy: QLQLQESGPGLVKPSETLSLTCTVSGGSISSSRYFWGWIRQPPGKGLEWIGYIYYRGSTYYNPSLKSRVTIAVDTSKNQFSLKLSSVTAADTAVYYCASSSAWYFDYWGQGNLVTVSSASTKGPSVFPLAPSSKSTSGGTAALGCLVKDYFPEPVTVSWNSGALTSGVHTFPAVLQSSGLYSLSSVVTVPSSSLGTQTYICNVNHKPSNTKVDKRVEPKSCDKTHTCPPCPAPEAEGAPSVFLFPPKPKDTLMISRTPEVTCVVVDVSHEDPEVKFNWYVDGVEVHNAKTKPREEQYNSTYRVVSVLTVLHQDWLNGKEYKCKVSNKALPSSIEKTISKAKGQPREPQVYTLPPSREEMTKNQVSLTCLVKGFYPSDIAVEWESNGQPENNYKTTPPVLDSDGSFFLYSKLTVDKSRWQQGNVFSCSVMHEALHNHYTQKSLSLSPG
VL: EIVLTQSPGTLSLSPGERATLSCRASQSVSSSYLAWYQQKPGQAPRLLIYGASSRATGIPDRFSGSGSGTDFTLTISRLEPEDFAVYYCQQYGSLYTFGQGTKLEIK
notes: kappa light chain
In assay [1], B6 showed a dissociation constant Kd of 1.5 nM, an off-rate (koff) of 0.0016 s⁻¹ and a kon of 1.1e+06 M⁻¹ s⁻¹.

B7: 15A6 N112T IgG1.1f (antibody)
heavy: QLQLQESGPGLVKPSETLSLTCTVSGGSISSSRYFWGWIRQPPGKGLEWIGYIYYRGSTYYNPSLKSRVTIAVDTSKNQFSLKLSSVTAADTAVYYCASSSAWYFDYWGQGTLVTVSSASTKGPSVFPLAPSSKSTSGGTAALGCLVKDYFPEPVTVSWNSGALTSGVHTFPAVLQSSGLYSLSSVVTVPSSSLGTQTYICNVNHKPSNTKVDKRVEPKSCDKTHTCPPCPAPEAEGAPSVFLFPPKPKDTLMISRTPEVTCVVVDVSHEDPEVKFNWYVDGVEVHNAKTKPREEQYNSTYRVVSVLTVLHQDWLNGKEYKCKVSNKALPSSIEKTISKAKGQPREPQVYTLPPSREEMTKNQVSLTCLVKGFYPSDIAVEWESNGQPENNYKTTPPVLDSDGSFFLYSKLTVDKSRWQQGNVFSCSVMHEALHNHYTQKSLSLSPG
VL: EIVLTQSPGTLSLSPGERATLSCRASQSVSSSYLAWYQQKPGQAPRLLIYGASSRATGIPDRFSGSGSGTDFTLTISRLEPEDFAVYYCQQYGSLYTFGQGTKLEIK
notes: kappa light chain; also called 15A6 VH domain N112T
In assay [1], B7 yielded a Kd of 1.7 nM, an off-rate constant (koff) of 0.0019 s⁻¹ and an on-rate constant (kon) of 1.1e+06 M⁻¹ s⁻¹.

B8: 15A6 A72S & N112T IgG1.1f (antibody)
heavy: QLQLQESGPGLVKPSETLSLTCTVSGGSISSSRYFWGWIRQPPGKGLEWIGYIYYRGSTYYNPSLKSRVTISVDTSKNQFSLKLSSVTAADTAVYYCASSSAWYFDYWGQGTLVTVSSASTKGPSVFPLAPSSKSTSGGTAALGCLVKDYFPEPVTVSWNSGALTSGVHTFPAVLQSSGLYSLSSVVTVPSSSLGTQTYICNVNHKPSNTKVDKRVEPKSCDKTHTCPPCPAPEAEGAPSVFLFPPKPKDTLMISRTPEVTCVVVDVSHEDPEVKFNWYVDGVEVHNAKTKPREEQYNSTYRVVSVLTVLHQDWLNGKEYKCKVSNKALPSSIEKTISKAKGQPREPQVYTLPPSREEMTKNQVSLTCLVKGFYPSDIAVEWESNGQPENNYKTTPPVLDSDGSFFLYSKLTVDKSRWQQGNVFSCSVMHEALHNHYTQKSLSLSPG
VL: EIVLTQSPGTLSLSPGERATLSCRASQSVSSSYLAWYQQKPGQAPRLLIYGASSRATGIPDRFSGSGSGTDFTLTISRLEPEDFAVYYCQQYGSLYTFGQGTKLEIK
notes: kappa light chain; also called 15A6 VH domain A72S N112T
B8: in assay [1], the dissociation constant (Kd) is 2 nM, the koff was 0.002 s⁻¹ and the kon was found to be 1e+06 M⁻¹ s⁻¹.

B9: 15A6 A72S IgG1.1f (antibody)
heavy: QLQLQESGPGLVKPSETLSLTCTVSGGSISSSRYFWGWIRQPPGKGLEWIGYIYYRGSTYYNPSLKSRVTISVDTSKNQFSLKLSSVTAADTAVYYCASSSAWYFDYWGQGNLVTVSSASTKGPSVFPLAPSSKSTSGGTAALGCLVKDYFPEPVTVSWNSGALTSGVHTFPAVLQSSGLYSLSSVVTVPSSSLGTQTYICNVNHKPSNTKVDKRVEPKSCDKTHTCPPCPAPEAEGAPSVFLFPPKPKDTLMISRTPEVTCVVVDVSHEDPEVKFNWYVDGVEVHNAKTKPREEQYNSTYRVVSVLTVLHQDWLNGKEYKCKVSNKALPSSIEKTISKAKGQPREPQVYTLPPSREEMTKNQVSLTCLVKGFYPSDIAVEWESNGQPENNYKTTPPVLDSDGSFFLYSKLTVDKSRWQQGNVFSCSVMHEALHNHYTQKSLSLSPG
VL: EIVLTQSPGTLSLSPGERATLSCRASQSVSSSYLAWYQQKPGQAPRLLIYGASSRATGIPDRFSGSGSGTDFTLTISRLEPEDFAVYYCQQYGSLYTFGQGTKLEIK
notes: kappa light chain; also called 15A6 VH domain A72S
With B9, in assay [1], the Kd came out at 1.5 nM, the koff was determined as 0.0017 s⁻¹ and the on-rate constant (kon) turned out to be 1.1e+06 M⁻¹ s⁻¹.

B10: 11G11 (antibody, V domains shown)
VH: QLQLQESGPGLVKPSETLSLTCTVSGGSISSSSHYWGWIRQPPGKGLEWIGNIFYSGHTYYNPSLKSRVTISVDTSKNQFSLKLSSVTAADTAVYYCARQGLLWFGGLSPYYFDYWGQGTLVTVSS
VL: EIVLTQSPATLSLSPGERATLSCRASQSVSSYLAWYQQKPGQAPRLLIYDASNRATGIPARFSGSGSGTDFTLTISSLEPEDFAVYYCQQRSNWPTFGQGTKLEIK
notes: fully human mAb from KM mouse hybridoma; also called anti-huTIGIT mAb 11G11
B10: in assay [3], the Kd was determined as 28.7 nM, the koff amounted to 0.00144 s⁻¹ and the association rate constant (kon) worked out at 50300 M⁻¹ s⁻¹.
